Data reported in PMC5639367, “Structure‐Guided Design of Peptides as Tools to Probe the Protein–Protein Interaction between Cullin‐2 and Elongin BC Substrate Adaptor in Cullin RING E3 Ubiquitin Ligases” (Chemmedchem, 2017).

peptide C (8-mer Cul2 peptide, Leu3 replaced by phenylalanine), sequence (Q13617 whole entry, looked up, tested part not stated): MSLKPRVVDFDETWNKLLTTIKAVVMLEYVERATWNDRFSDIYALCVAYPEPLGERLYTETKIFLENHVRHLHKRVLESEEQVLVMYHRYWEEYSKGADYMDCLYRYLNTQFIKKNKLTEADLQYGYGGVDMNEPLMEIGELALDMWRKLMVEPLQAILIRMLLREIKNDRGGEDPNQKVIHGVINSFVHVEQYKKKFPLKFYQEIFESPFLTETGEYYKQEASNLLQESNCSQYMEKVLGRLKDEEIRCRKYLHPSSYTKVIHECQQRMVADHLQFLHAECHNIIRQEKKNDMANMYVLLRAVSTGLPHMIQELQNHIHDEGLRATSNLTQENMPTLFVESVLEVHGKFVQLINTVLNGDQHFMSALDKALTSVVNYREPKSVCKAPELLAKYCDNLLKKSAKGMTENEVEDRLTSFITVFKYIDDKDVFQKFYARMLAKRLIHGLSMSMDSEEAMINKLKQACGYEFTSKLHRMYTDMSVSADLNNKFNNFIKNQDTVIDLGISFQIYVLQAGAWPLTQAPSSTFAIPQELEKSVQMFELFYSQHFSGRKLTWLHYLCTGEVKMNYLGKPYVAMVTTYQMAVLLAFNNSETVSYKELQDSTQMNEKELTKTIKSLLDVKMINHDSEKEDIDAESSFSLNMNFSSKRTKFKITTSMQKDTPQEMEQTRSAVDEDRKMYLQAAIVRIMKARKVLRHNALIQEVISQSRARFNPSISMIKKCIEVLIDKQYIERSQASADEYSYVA
peptide D (8-mer Cul2 peptide, Leu3 replaced by tyrosine), sequence (Q13617 whole entry, looked up, tested part not stated): as above

What follows are substances tested against VBC ternary complex (pVHL, Elongin B, Elongin C) (UniProt P40337) (assay: BLI; biotinylated VBC (25 ug/mL) immobilised on Super Streptavidin biosensors, peptides titrated; Octet RED384; 25 °C; 20 mM HEPES pH 7.6, 100 mM NaCl, 1 mM DTT, 0.02 % Tween-20; reference tips subtracted; 1:1 model).
With “peptide C (8-mer Cul2 peptide, Leu3 replaced by phenylalanine) (from UniProt Q13617 1-8)” the Kd was 3100 µM.
For “peptide D (8-mer Cul2 peptide, Leu3 replaced by tyrosine) (from UniProt Q13617 1-8)”, the Kd was 7400 µM.
“peptide F (8-mer Cul2 peptide, Leu3 replaced by norvaline) (from UniProt Q13617 1-8)” showed a Kd of 1900 µM.
“peptide G (8-mer Cul2 peptide, Leu3 replaced by tert-butylglycine) (from UniProt Q13617 1-8)” showed a Kd of 900 µM.
“peptide H (8-mer Cul2 peptide, Leu3 replaced by phenylglycine) (from UniProt Q13617 1-8)” was tested, and the Kd was 2100 µM.
“peptide I (8-mer Cul2 peptide, Leu3 replaced by cyclohexhylglycine) (from UniProt Q13617 1-8)” showed a Kd of 8900 µM.
For “peptide K (8-mer Cul2 peptide, Leu3 replaced by thioproline) (from UniProt Q13617 1-8)”, the Kd was 2200 µM.
